Laboratory results as given in the DeepSol protein solubility set.

Assay: soluble on expression in E. coli; label from the status in PepcDB or PDB records
With “MRLLTIGSGLRGAKVAEILHKKGVKVNRVPLFKCFAVLNNEEHLRSISIGDDRKYYVHGLKGDVSGFVNQITSLYEIFEGSLVLTSLEDDFGYITSLELCQRLRKVTEDAVISLAIVPQLDTSSIGEIKKRIRSLRDVSDILILFEGEVGVERKILEVMNLVALAGEIDLKKRVAGEVVVDTSDVFNALKSDGFAIAGLAERKIPFNFKNLIFRRNSELKAVRTRRMIELTEEALQNVSINGDVENAKSALLLFAGKPDELTMEGLFSSIAMIENINRDIVVRYGDYPIPGSRKVSAVLIFSGIRKFRFA” the “soluble on expression in E. coli” value was “soluble”.
With “RVETQPEVQLPGPAPNLRAYAASPTSITVTWETPVSGNGEIQNYKLYYMEKGTDKEQDVDVSSHSYTINGLKKYTEYSFRVVAYNKHGPGVSTPDVAVRTLSD” the “soluble on expression in E. coli” value was “soluble”.
For “MSLLSAFDTTAQRLGTASQNIEKDFWVCWTLDALFNGLSERGPRLLFKGGTSLSKGFGLINRFSEDIDVTVFRDDIGEPATIEELNVLSRNKRRARLDAIKEACQAYINGPLRAELTAILQKRLQAAGLSAGDARVEADGADSDGQTLLIWYPAATPRSDYVRAAIKIESGAKSALDPNSEVPIKAYVDDDLPALDLTVPAVRTVDPERTFWDKVVILHGLRRWFDKRGELRGGGQRVSRHYYDLHRLTAAPVGAAAIDDAALGADCVAHARMFFNRPDYDLATAAPGSFALAPHDEMIEQLRTDYRAMQGMIFGDPPSFEAVLKSINSLETQLNKDIANEGGPTREGHHHHHH”, the “soluble on expression in E. coli” value was “soluble”.
For “MSLEAKKDMGRCLWELKDEIDHVDRYCHDLAAWDDLHAFIKAPNADFLKINLNADTILDNEVSFICIVDRSGQLLFAEDWDLHRKEKTVLTTLPDSLRSVASLPFSSESDKDDLSNMKRVGIYNSSRGPMMLSSRPIITSNQQGPVQGAVIIGRLLDQGSLDAMMVRVALNFRFIDMSGDELTAKEKKILGELAVEEISIVERENSDNLEVYSHLADIGGRYLIQAEIPKHILQREGHHHHHH”, the “soluble on expression in E. coli” value was “soluble”.
In the case of “MADKLAFTTADLVTCLICIREFDTKTRKPKVLHCGHTVCEECTDNLRDFNAPLLVVRCPTCRQFTKRPVAESCNTNFQLMGYLAEKEKFEREKKAKGGKPKKPDQVLTLKMARSNRMEIHVASKKDLEGPELYLRKDSEGNTHIVVAGLTGSPAEVMKFITENGISIETGVLMPQVVYDEGRTRGGTEKFAKVNSMAAGQSAIKCTKPPVKLEELEFHKTFELKVSEESGSLKMELVQKEEVPKNGFGVFEGCMTKPSAKRLKEFTDSCPGTSAEDEVQVIEPEPLPKRRRTRK”, the “soluble on expression in E. coli” value is reported as “not soluble”.
In the case of “MGSDKIHHHHHHMHQPSDFQVFRTLDRTSNARLLRSSTLSDGLALAHWYRDEAEILGYSDPGHHTLSLYLQGGWQTFRRDRPGLYGGPDRFCVMPAEHHSDWAVTRGLGFMHLYISPERLAGAAVRTLDCEPRSLQLEERTYIQDEPLAALCRTLERQDWNEPGEHLLCTSLAHQAVDHLLLTGCGRRTDVRWQGGLAAHVRRRLADYIESHLEQPLELGSLAELAALSEYHFARMFRVSFGLPPHRYVLERRLARARDLLAYSAQPLQEVSLACGFASPSHFNRRFREAHGATPGQYRAALKAS”, the “soluble on expression in E. coli” value is reported as “not soluble”.
With “GAMGDDSMRMSHLKVGSAADIPINISETDLSLLTATVVPPSGREEPCLLKRLRNGHVGISFVPKETGEHLVHVKKNGQHVASSPIPVVISQSEIGDASRVRVSGQGLHEGHTFEPAEFIIDTRDAGYGGLSLSIEGPSKVDINTEDLEDGTCRVTYCPTEPGNYIINIKFADQHVPGSPFSVKVTGEGRVK” the “soluble on expression in E. coli” value was “soluble”.
With “MTRPPAGTPYWDAAELPTQPQLHGVVTADVAVVGAGLAGLSCAYHLAERAPGLDIAVVDAEHPAAGASGRGTGLLGPRAGPAVDRAVRRFGPQTARRMHRASERAVRDVLALCARLDVPCGLRTGEQLVATRSSAGLAALARQARACRELGLDVPVLTPAGIRDRVGVPYRAALLHRPAATLDPAALTCALARACADKGVRFYGRSPLLALRPGDLVGPELVLPHGRLYAGQAVLAVNSAAQALDLPVGTVLPLEVYAVATEPLSAPAYEALGGRAGHAVVDAVPMAPYFRLLPDRGLVAGGGTATVPAGVGAPRLQAVRERAWSWLERWLRALHPDLARVRVTHRWSGRIGMTGDDLPVVGPVPGYDDVWYIGGCCGHGLALSVAHGAHVAAALLGEPEPGEPLPWHRSRAPRLPARGPAGPLLRAYVDAMGRIARHTCLEHHHHHH” the “soluble on expression in E. coli” value was “not soluble”.
For “MGGNMEDVKMKCGLEIHVQIDTKSKLFCNCSTNYLDAEPNTNVCPVCLGLPGAKPLPPNKKAVEVAIMVAKMLGCKIVVDEDIYFQRKHYDYPDLPSGYQRTSTPIGVDGEFMGIGIHEVHLEEDPGQYNPSFGIVDYNRSGTPLIEIVTKPDIKSPEEAREFLKQLMTLFRYLGCLRGEGTMRADVNISIEYMGVQGNRVEVKNVNSIKGVYKVLKYELIRQKNIIKRGGEVKRETRAFLESQMITKAMRSKETAEDYRYIPDPDIQPIVISEKWVKEIEEKMPETPLAKKKRFVEEYGIDEEDAKVLVSDLDMAEMFEEVVKSLGVNKENVDLAVTWIRNELRRSLQYHKVDLYESGVKAEHIVELIKLIKEGVISQKIAKEIVDLLVINRGKKMPKELVEELGLTVIRDEDALVKAVEEAIKNNPKAVEDYLNGKKEALNFLMGQVMRLTRGRADPKRVIELLKERLDK”, the “soluble on expression in E. coli” value was “soluble”.
For “MANELTWHDVLAEEKQQPYFLNTLQTVASERQSGVTIYPPQKDVFNAFRFTELGDVKVVILGQDPYHGPGQAHGLAFSVRPGIAIPPSLLNMYKELENTIPGFTRPNHGYLESWARQGVLLLNTVLTVRAGQAHSHASLGWETFTDKVISLINQHREGVVFLLWGSHAQKKGAIIDKQRHHVLKAPQPSPLSAHRGFFGCNHFVLANQWLEQHGETPIDWMPVLPAESE”, the “soluble on expression in E. coli” value was “soluble”.
In the case of “MGHPRSIRSFVLRQSHMTAAQQRAIDTLWDSFGIDYQATPADLDARFGSSRPKILEIGFGMGTATAEIARRLPETDFLAIDVHGPGVGNLLKLIDENHLENIRVMRHDAVEVVENMLQDGSLDGIHIFFPDPWHKKRHHKRRLIQAPFIAKLLPKLKTGGYIHLATDWEEYAQQMLEVLSSFDSLQNTAADYAPTPDYRPETKFEARGKRLGHGVWDLVFKRIGLEHHHHHH”, the “soluble on expression in E. coli” value is reported as “soluble”.
In the case of “MSLKNLFNKYNDMKGVSSVYISKAMMELNPNLFMKDLYIGKVAEHLNSVQVLSTHDNKVREEMAKDIRSLVQSSKYELLMKQKSTVSGSEVYVNRKGSKVKELIMVMNGASSLKFVYMEGDMTTDDIKKLMLYQSTSQNFIISGDLFYANNKPVTYFKKGNSDNQKDMAELSGTYNLNSIDTNYKEELSTLNDKLKRIDQGLKNMNIKEGHHHHHH”, the “soluble on expression in E. coli” value is reported as “soluble”.
With “MAANSLPQDISDVELVHLARAAMKRAHCPYSKFPVGAALLTESGEIVQGCNVENASYGGTICAERSAIVSAVSQGYTKFRAIAVVTELSEPASPCGLCRQFLVEFGDYKVVVGTASNNKILITSTRALLPFAFTPESLDTFEQEKASEAKGLKQDDATEHNVTVVS” the “soluble on expression in E. coli” value was “not soluble”.
For “PFEGNRVDIYTGGYSKLQALLRELQKARLHIHMEYYIFEDDPVGRLVRDVLIEKAREGVEVRVIYDDVGCWHVPHRFFEEMRDAGIEVRSFLKVRFPLFTSKVNYRNHRKIVVIDGRIGFIGGMNLAERYMRGFSWGIWRDTHILLEGKAVHGLQTAFLLDWYFVDRTLITASRYFPKIEAYGNSLVQIVTSEP”, the “soluble on expression in E. coli” value was “not soluble”.
For “GPHVKSGLQIKKNAIIDDYKVTSQVLGLGINGKVLQIFNKRTQEKFALKMLQDCPKARREVELHWRASQCPHIVRIVDVYENLYAGRKCLLIVMECLDGGELFSRIQDRGDQAFTEREASEIMKSIGEAIQYLHSINIAHRDVKPENLLYTSKRPNAILKLTDFGFAKETTGEKYDKSCDMWSLGVIMYILLCGYPPFYSNHGLAISPGMKTRIRMGQYEFPNPEWSEVSEEVKMLIRNLLKTEPTQRMTITEFMNHPWIMQSTKVPQTPLHTSRVLKEDKERWEDVKEEMTSALATMR”, the “soluble on expression in E. coli” value was “soluble”.
With “MLDKLGGIAVQPEALTWLLTPCRFKAELLTRIENAKTSIYIAALYLEDDEAGREILQVLMTAKANNPALDIKVLVDFHRARRGLIGHKGDSGNYLMYRKVMAEAKHPIEIMGVPVKSREFMGVLHLKGFVIDDAVIYSGASLNNIYLQQNDKYRFDRYHVIESAELARSMRAMIQRYIIADPAVTSLTQDAQQEVLPPKTDVRSFKLRLSQAQYEFNETRSGNRVTPLLGLGRKHNLLNKTVIAMVEESKDRLFICTPYFNPPYILVRALAKHLRKGKRIDIVVGDKTANDFYIPPEQDFSTIGALPYLYEQSLRKFAKRQQWAIDNGQLNIHLWKHGINSYHLKGISTDGRKHLITGSNLNPRAWALDLENGILIHDETGSWKAQFEAEQAHILEHTQRLYHYSQVDTLQSYPDPVKKIMNRIRRLKADFLLRRILLEHHHHHH” the “soluble on expression in E. coli” value was “soluble”.
In the case of “MAHHHHHHMKIVPPNFGYVEERIFRCGAPEPCHYAFLASLKLRTCVLLTESHDEAFVRWLRENNVHTVCPLYDGSRMNGLGDKMGCVGYHTGSMTLSEPVVVDILHVLVDPINYPLLLTCSVGRYRTGIVCGCLRKLQGWSLVSILEEYRRYAQDKGRAENEEFIELFDKDLVNLELKDGRRPTILYPYDV”, the “soluble on expression in E. coli” value is reported as “soluble”.
In the case of “MVHHKLKNDPSGHDWFHIVRVRNLAVELAHKEGANTFICQMAALLHDIIDDKICQDSKQASYELTQWLYSQDLAIAEVEHILDILENISFKAGTGLTMKTLEGQIVQDADRLDAMGAIGIARTMAYSGSKGRLIHDPNLKPRENLTLEEYRNGQDTAIIHFYEKLLKLKDLMNTKQGKMLAQKRHDFLELYLAEFYAEWNGKRLEHHHHHH”, the “soluble on expression in E. coli” value is reported as “not soluble”.
With “MQVDINVNVVEKPTGAIMFGAGYSDREGIILNGSIAQNNILGTGNFLSLQVNTGSVNKVISASFNNPYYTINGVSLGLEAFKRDINTRSLSSVGMFNTDTTGANIRFGIPVAENDIVSLGLGYEHTKIDLRDDSPQRFKDFVDQFGKTSNNLPITLSWARDRRNSAIWTTSGMTQRLFGEFGLPFGDLNYYKVSYEQRWFFPVTKMFTLMLNGEVGVGDGYSDKPLPFFKNFFAGGFNSVRGYNINTLGPRDSDDRVLGGSKRIVGNIEVLFPVPFMKEDKSVRLSAFADGGTIVNSFSGLGFDDFRYSAGLAATWISPMGPLKFSVAQPLNNQSGDKLQRFQFQFGQTFLEHHHHHH” the “soluble on expression in E. coli” value was “not soluble”.
With “DPLQILGQLTGQLEQQQTAPSGTSAKAPPANDQQAEFVASILGDTEDTWKALFAQAGKQYRDPKLVLFSGQVNSACGFASAAVGPFYCPADQRVYLDMSFFREMETRFAAAGDFAQAYVIAHEIGHHVQTLLGVSAKVDAARRAGQRMEGDNGLLVRQELQADCLAGVWAYQAQKRLNWLEPGDVEEALNAANAIGDDRLQQQGRGRVVPDSFTHGTSAQRVRWFKIGFAEGEVNRCDTF” the “soluble on expression in E. coli” value was “not soluble”.
For “MGSDKIHHHHHHMATLETLDLSAGFAADLVQATEADAVTGYRRFHLGAFAFQRDEYFVKISWPAKGSTRTHAIPADAFLRAMMRDVAWGFFYGWVNFDHVFGTRNHYGKVDVYAGTFNGILKEAGVDYTETFETPTIMATFKAMLHDWTNEGFDPFAAPEETGTAFGRKHGENGAAIERTRIATRRMPGLEGDSPLRDELPVNRAFRDVGQDEPEVHVKPGFEGELHAFNLFKYLSRSDVTWNPSVTSVCGRSLFCPTTEEFILPVFHGNDRVEWFLQLSDEIVWDIGDKNTGAPRARITMRAGDICAMPADIRHQGYSTKRSMLLVWENATPDLPQRYESGELAPYPIAF”, the “soluble on expression in E. coli” value was “not soluble”.
In the case of “MNANYVSKKPYIVTIACTKGGSAKSTNAANIGAFCADHGLRTLLIDTDTQPTLSSYYSLAKTAPGGIYEFLLQRDVEPSHIVSQTSIKNLDLIQSNDPSNNVSHMLRNAPDGSIRFSHLIKSINNYDVIVIDTRGTRDITVDMSVLAADILFCPILPQILSAKEFIRGTIGMYQDLQTFESFGFKLPPLKAIANGVDNTNDVKFVMQKLHTLFANTFDESKTLLDFSIPYHVAYREAVTYALPVYRHSAVEYPVMQQLCCLLLPQFKENFEKPMQRGLEHHHHHH”, the “soluble on expression in E. coli” value is reported as “soluble”.
